The supplement of paper PMC9112550, “Optimization of the antimicrobial peptide Bac7 by deep mutational scanning” (BMC Biology, 2022)

tested on: Escherichia coli TOP10; test: shrunken log2 fold change of peptide-encoding DNA abundance (4.5 h post-induction vs induction); higher = less antimicrobial activity (less host growth inhibition); settings: time post-induction: 4.5 h; library: site-saturation at positions 5, 18, 19, 20
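Note: peptides expressed intracellularly from a pBAD plasmid library in pooled LB shake-flask culture, induced with 0.3% L-arabinose, DNA abundance read by NGS, three biological replicates, DESeq2 with apeglm shrinkage.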

Sequence | shrunken log2 fold change
RRIRGRPPRLPRPRPRPRINPRP | -0.122
RRIRHRPPRLPRPRPRPLWKPRP | -0.102
RRIRCRPPRLPRPRPRPQKWPRP | -0.568
RRIRARPPRLPRPRPRPMDSPRP | -0.104
RRIRRRPPRLPRPRPRPWYYPRP | -0.293
RRIRCRPPRLPRPRPRPFQFPRP | 0.133
RRIRERPPRLPRPRPRPRPQPRP | 0.61
RRIRQRPPRLPRPRPRPEVRPRP | 0.0665
RRIRQRPPRLPRPRPRPNNGPRP | -0.361
RRIRFRPPRLPRPRPRPGLAPRP | 0.344
RRIRNRPPRLPRPRPRPSNWPRP | -0.203
RRIRKRPPRLPRPRPRPDANPRP | -0.0872
RRIRPRPPRLPRPRPRPHLEPRP | -0.122
RRIRWRPPRLPRPRPRPMLNPRP | -0.00515
RRIRNRPPRLPRPRPRPKTTPRP | 0.118
RRIRGRPPRLPRPRPRPNWTPRP | 0.0497
RRIRIRPPRLPRPRPRPRTCPRP | -0.282
RRIRHRPPRLPRPRPRPPQMPRP | 0.149
RRIRSRPPRLPRPRPRPCQKPRP | 0.185
RRIRPRPPRLPRPRPRPNPRPRP | 0.596
RRIRWRPPRLPRPRPRPDNVPRP | -0.26
RRIRWRPPRLPRPRPRPYVQPRP | -0.0608
RRIRIRPPRLPRPRPRPPIMPRP | -0.494
RRIRTRPPRLPRPRPRPKWAPRP | 0.0541
RRIRQRPPRLPRPRPRPWGTPRP | -0.239

Sequence | shrunken log2 fold change
RRIRFRPPRLPRPRPRPQKWPRP | -0.0281
RRIRTRPPRLPRPRPRPYCRPRP | -0.149
RRIRTRPPRLPRPRPRPIEMPRP | -0.25
RRIRERPPRLPRPRPRPIWQPRP | 0.062
RRIRYRPPRLPRPRPRPHLEPRP | -0.021
RRIRKRPPRLPRPRPRPETVPRP | 0.0854
RRIRARPPRLPRPRPRPYRYPRP | -0.274
RRIRTRPPRLPRPRPRPGCIPRP | -0.22
RRIRDRPPRLPRPRPRPGKQPRP | -0.0597
RRIRIRPPRLPRPRPRPKDEPRP | -0.00382
RRIRFRPPRLPRPRPRPRHHPRP | -0.116
RRIRGRPPRLPRPRPRPWYAPRP | -0.249
RRIRNRPPRLPRPRPRPMIWPRP | -0.166
RRIRLRPPRLPRPRPRPGIVPRP | -0.16
RRIRQRPPRLPRPRPRPYHQPRP | -0.631
RRIRARPPRLPRPRPRPVCFPRP | 0.489
RRIRCRPPRLPRPRPRPYFFPRP | -0.614
RRIRKRPPRLPRPRPRPFCNPRP | 0.128
RRIRSRPPRLPRPRPRPKQAPRP | -0.0378
RRIRWRPPRLPRPRPRPNQRPRP | 0.181
RRIRIRPPRLPRPRPRPDSAPRP | -0.194
RRIRYRPPRLPRPRPRPDHNPRP | -0.217
RRIRERPPRLPRPRPRPCREPRP | -0.129
RRIRERPPRLPRPRPRPEILPRP | -0.159
RRIRMRPPRLPRPRPRPHPDPRP | -0.0902

Sequence | shrunken log2 fold change
RRIRFRPPRLPRPRPRPIQPPRP | 0.137
RRIRSRPPRLPRPRPRPIMSPRP | -0.173
RRIRSRPPRLPRPRPRPMPSPRP | -0.194
RRIRCRPPRLPRPRPRPEIHPRP | -0.217
RRIRMRPPRLPRPRPRPYQCPRP | -0.118
RRIRSRPPRLPRPRPRPFLNPRP | -1.03
RRIRNRPPRLPRPRPRPAMGPRP | 0.288
RRIRARPPRLPRPRPRPIAKPRP | 0.217
RRIRKRPPRLPRPRPRPALCPRP | 0.146
RRIRYRPPRLPRPRPRPMVKPRP | -0.574
RRIRARPPRLPRPRPRPMFEPRP | 0.3
RRIRSRPPRLPRPRPRPDSEPRP | 0.139
RRIRTRPPRLPRPRPRPDMDPRP | 0.00854
RRIRYRPPRLPRPRPRPLFIPRP | -0.683
RRIRIRPPRLPRPRPRPSSAPRP | -0.666
RRIRRRPPRLPRPRPRPGELPRP | 0.12
RRIRVRPPRLPRPRPRPMREPRP | 0.689
RRIRFRPPRLPRPRPRPQIFPRP | -0.172
RRIRQRPPRLPRPRPRPPHDPRP | 1.12
RRIRHRPPRLPRPRPRPGVNPRP | -0.000777
RRIRDRPPRLPRPRPRPAYNPRP | -0.764
RRIRGRPPRLPRPRPRPPGQPRP | 0.976
RRIRARPPRLPRPRPRPNLCPRP | 0.0317
RRIRCRPPRLPRPRPRPQYIPRP | -0.738
RRIRGRPPRLPRPRPRPRLIPRP | 0.166

Sequence | shrunken log2 fold change
RRIRQRPPRLPRPRPRPNMYPRP | -0.433
RRIRYRPPRLPRPRPRPTTHPRP | -0.647
RRIRMRPPRLPRPRPRPVKDPRP | 0.0812
RRIRRRPPRLPRPRPRPQSEPRP | 0.0256
RRIRARPPRLPRPRPRPHRRPRP | 0.212
RRIRKRPPRLPRPRPRPTGEPRP | 0.954
RRIRIRPPRLPRPRPRPRHPPRP | -0.0642
RRIRCRPPRLPRPRPRPQMDPRP | -0.248
RRIRHRPPRLPRPRPRPACHPRP | -0.2
RRIRFRPPRLPRPRPRPYDMPRP | -0.209
RRIRNRPPRLPRPRPRPYCTPRP | -0.169
RRIRERPPRLPRPRPRPFMTPRP | -0.438
RRIRHRPPRLPRPRPRPNINPRP | -1.31
RRIRYRPPRLPRPRPRPEDYPRP | -0.00116
RRIRQRPPRLPRPRPRPQGDPRP | -0.00865
RRIRVRPPRLPRPRPRPPGSPRP | 0.342
RRIRVRPPRLPRPRPRPMPQPRP | 0.311
RRIRQRPPRLPRPRPRPTMWPRP | 0.16
RRIRERPPRLPRPRPRPVNTPRP | -0.34
RRIRNRPPRLPRPRPRPNILPRP | -0.0518
RRIRFRPPRLPRPRPRPPCGPRP | 0.362
RRIRPRPPRLPRPRPRPHWWPRP | 0.507
RRIRIRPPRLPRPRPRPILNPRP | -0.73
RRIRYRPPRLPRPRPRPQMKPRP | -1.17
RRIRHRPPRLPRPRPRPYQMPRP | -0.113

Sequence | shrunken log2 fold change
RRIRFRPPRLPRPRPRPWWDPRP | -0.0745
RRIRWRPPRLPRPRPRPHHVPRP | -0.108
RRIRGRPPRLPRPRPRPNDKPRP | 0.342
RRIRTRPPRLPRPRPRPWYTPRP | -0.555
RRIRRRPPRLPRPRPRPSPYPRP | 0.0987
RRIRYRPPRLPRPRPRPVGNPRP | -0.0681
RRIRVRPPRLPRPRPRPFPCPRP | -0.00113
RRIRMRPPRLPRPRPRPGVIPRP | 3.26
RRIRVRPPRLPRPRPRPPEFPRP | 0.265
RRIRYRPPRLPRPRPRPRKYPRP | -0.333
RRIRLRPPRLPRPRPRPEMLPRP | -0.108
RRIRSRPPRLPRPRPRPTWCPRP | 0.18
RRIRLRPPRLPRPRPRPPLSPRP | -0.00759
RRIRARPPRLPRPRPRPNHYPRP | -0.456
RRIRKRPPRLPRPRPRPQHAPRP | 0.232
RRIRWRPPRLPRPRPRPYRGPRP | -0.0785
RRIRERPPRLPRPRPRPDGDPRP | 0.03
RRIRSRPPRLPRPRPRPQRQPRP | 0.116
RRIRHRPPRLPRPRPRPMCNPRP | -0.186
RRIRYRPPRLPRPRPRPFCHPRP | -0.239
RRIRPRPPRLPRPRPRPKFKPRP | 0.0351
RRIRLRPPRLPRPRPRPNFQPRP | -0.0242
RRIRARPPRLPRPRPRPCHRPRP | 0.0386
RRIRPRPPRLPRPRPRPDHIPRP | -0.0312
RRIRTRPPRLPRPRPRPLGMPRP | 0.257

Sequence | shrunken log2 fold change
RRIRHRPPRLPRPRPRPDWTPRP | -0.0689
RRIRHRPPRLPRPRPRPMRNPRP | 0.435
RRIRTRPPRLPRPRPRPTIIPRP | -0.786
RRIRCRPPRLPRPRPRPKNNPRP | -0.188
RRIRERPPRLPRPRPRPSSDPRP | -0.164
RRIRQRPPRLPRPRPRPLPVPRP | 0.21
RRIRHRPPRLPRPRPRPEVWPRP | 0.714
RRIRVRPPRLPRPRPRPCPRPRP | 0.368
RRIRFRPPRLPRPRPRPDCYPRP | -0.329
RRIRNRPPRLPRPRPRPQRVPRP | 0.399
RRIRCRPPRLPRPRPRPSRSPRP | -0.136
RRIRSRPPRLPRPRPRPTPWPRP | 0.349
RRIRIRPPRLPRPRPRPHGAPRP | -0.0865
RRIRHRPPRLPRPRPRPFTEPRP | 0.00246
RRIRVRPPRLPRPRPRPMFVPRP | 0.00262
RRIRSRPPRLPRPRPRPSFMPRP | -0.335
RRIRDRPPRLPRPRPRPYDIPRP | -0.00136
RRIRYRPPRLPRPRPRPVCPPRP | 0.101
RRIRRRPPRLPRPRPRPNQLPRP | -0.178
RRIRFRPPRLPRPRPRPDSHPRP | -0.495
RRIRSRPPRLPRPRPRPFRFPRP | -0.21
RRIRFRPPRLPRPRPRPIWNPRP | -0.147
RRIRMRPPRLPRPRPRPHRNPRP | -0.181
RRIRSRPPRLPRPRPRPDDEPRP | 0.0222
RRIRNRPPRLPRPRPRPRCEPRP | 0.357
